# Assay results from publication PMC9482650, “Quantitative fragmentomics allow affinity mapping of interactomes” (Nature Communications, 2022).
# B1: KIT, P10721 (peptide)
# chain: SQPLLVHDDV
# B2: JAM1, Q9Y624 (peptide)
# chain: EFKQTSSFLV
# Target: PDLIM1, O00151
# Test: holdup assay
# Set-up: key: below the threshold = too weak to quantify, mostly under pKd 3.1 to 4
# Conditions: plain residues with an end cap or a label only (N-terminal biotin on a linker: ado-ado)
# PDLIM1, O00151, sequence (O00151 1-87): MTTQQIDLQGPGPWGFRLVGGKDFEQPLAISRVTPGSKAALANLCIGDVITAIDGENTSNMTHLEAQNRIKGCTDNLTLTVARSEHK
row,Binder,pKd
1,B1,below the threshold
2,B2,below the threshold

# Target: SCRIB_1, Q14160
# Test: holdup assay
# Set-up: key: below the threshold = too weak to quantify, mostly under pKd 3.1 to 4
# Conditions: plain residues with an end cap or a label only (N-terminal biotin on a linker: ado-ado)
# SCRIB_1, Q14160, sequence (Q14160 718-814): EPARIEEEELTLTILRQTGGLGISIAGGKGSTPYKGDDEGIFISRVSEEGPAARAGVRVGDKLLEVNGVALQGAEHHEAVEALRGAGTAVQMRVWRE
row,Binder,pKd
1,B1,below the threshold
2,B2,below the threshold

# Target: Inadl_1, Q8NI35
# Test: holdup assay
# Set-up: key: below the threshold = too weak to quantify, mostly under pKd 3.1 to 4
# Conditions: plain residues with an end cap or a label only (N-terminal biotin on a linker: ado-ado)
# Inadl_1, Q8NI35, sequence (Q8NI35 113-229): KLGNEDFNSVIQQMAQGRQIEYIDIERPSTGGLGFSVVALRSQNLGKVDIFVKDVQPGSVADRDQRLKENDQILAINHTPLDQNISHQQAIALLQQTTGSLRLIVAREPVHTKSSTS
row,Binder,pKd
1,B1,below the threshold
2,B2,below the threshold

# Target: SCRIB_3, Q14160
# Test: holdup assay
# Set-up: key: below the threshold = too weak to quantify, mostly under pKd 3.1 to 4
# Conditions: plain residues with an end cap or a label only (N-terminal biotin on a linker: ado-ado)
# SCRIB_3, Q14160, sequence (Q14160 999-1103): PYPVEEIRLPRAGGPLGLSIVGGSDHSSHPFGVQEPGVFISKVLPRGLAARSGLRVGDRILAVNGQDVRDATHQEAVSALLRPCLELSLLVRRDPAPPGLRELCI
row,Binder,pKd
1,B1,below the threshold
2,B2,below the threshold

# Target: IL16_1, Q14005
# Test: holdup assay
# Set-up: key: below the threshold = too weak to quantify, mostly under pKd 3.1 to 4
# Conditions: plain residues with an end cap or a label only (N-terminal biotin on a linker: ado-ado)
# IL16_1, Q14005, sequence (Q14005 210-306): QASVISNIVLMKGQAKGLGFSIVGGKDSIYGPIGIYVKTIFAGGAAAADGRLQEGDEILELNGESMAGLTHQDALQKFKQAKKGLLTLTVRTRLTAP
row,Binder,pKd
1,B1,below the threshold
2,B2,below the threshold

# Target: GRIP2_6, Q9C0E4
# Test: holdup assay
# Set-up: key: below the threshold = too weak to quantify, mostly under pKd 3.1 to 4
# Conditions: plain residues with an end cap or a label only (N-terminal biotin on a linker: ado-ado)
# GRIP2_6, Q9C0E4, sequence (Q9C0E4 648-740): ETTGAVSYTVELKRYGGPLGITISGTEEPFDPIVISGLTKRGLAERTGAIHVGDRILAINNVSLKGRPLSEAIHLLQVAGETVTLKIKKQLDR
row,Binder,pKd
1,B1,below the threshold
2,B2,4.35

# Target: T1, MPDZ_10, O75970
# T1 sequence (O75970 1624-1722, limits assumed, looked up): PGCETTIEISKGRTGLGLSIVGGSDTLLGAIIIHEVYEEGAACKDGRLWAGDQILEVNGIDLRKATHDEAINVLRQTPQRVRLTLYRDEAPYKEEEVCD
# Test: holdup assay
# Set-up: key: below the threshold = too weak to quantify, mostly under pKd 3.1 to 4
# Conditions: plain residues with an end cap or a label only (N-terminal biotin on a linker: ado-ado)
row,Binder,pKd
1,B1,3.93
2,B2,below the threshold

# Target: T2, PDZRN3_1, Q9UPQ7
# T2 sequence (Q9UPQ7 244-349, limits assumed, looked up): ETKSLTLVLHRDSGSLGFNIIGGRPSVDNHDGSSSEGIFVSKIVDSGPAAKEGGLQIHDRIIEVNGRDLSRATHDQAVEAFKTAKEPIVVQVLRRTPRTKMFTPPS
# Test: holdup assay
# Set-up: key: below the threshold = too weak to quantify, mostly under pKd 3.1 to 4
# Conditions: plain residues with an end cap or a label only (N-terminal biotin on a linker: ado-ado)
row,Binder,pKd
1,B1,below the threshold
2,B2,below the threshold

# Target: T3, MPP7, Q5T2T1
# T3 sequence (Q5T2T1 134-230, limits assumed, looked up): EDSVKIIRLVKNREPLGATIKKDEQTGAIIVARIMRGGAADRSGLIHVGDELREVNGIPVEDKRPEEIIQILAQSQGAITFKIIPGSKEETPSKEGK
# Test: holdup assay
# Set-up: key: below the threshold = too weak to quantify, mostly under pKd 3.1 to 4
# Conditions: plain residues with an end cap or a label only (N-terminal biotin on a linker: ado-ado)
row,Binder,pKd
1,B1,below the threshold
2,B2,3.74

# Target: T4, RHPN1, Q8TCX5
# T4 sequence (Q8TCX5 508-602, limits assumed, looked up): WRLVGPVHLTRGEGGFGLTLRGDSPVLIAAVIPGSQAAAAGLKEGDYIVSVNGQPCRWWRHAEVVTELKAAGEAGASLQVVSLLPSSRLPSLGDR
# Test: holdup assay
# Set-up: key: below the threshold = too weak to quantify, mostly under pKd 3.1 to 4
# Conditions: plain residues with an end cap or a label only (N-terminal biotin on a linker: ado-ado)
row,Binder,pKd
1,B1,below the threshold
2,B2,below the threshold

# Target: NHERF4_4, Q86UT5
# Test: holdup assay
# Set-up: key: below the threshold = too weak to quantify, mostly under pKd 3.1 to 4
# Conditions: plain residues with an end cap or a label only (N-terminal biotin on a linker: ado-ado)
# NHERF4_4, Q86UT5, sequence (Q86UT5 464-550): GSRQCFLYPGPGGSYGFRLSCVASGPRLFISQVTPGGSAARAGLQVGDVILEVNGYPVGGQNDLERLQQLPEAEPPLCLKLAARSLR
row,Binder,pKd
1,B1,below the threshold
2,B2,below the threshold

# Target: T5, FRMPD1, Q5SYB0
# T5 sequence (Q5SYB0 52-145, limits assumed, looked up): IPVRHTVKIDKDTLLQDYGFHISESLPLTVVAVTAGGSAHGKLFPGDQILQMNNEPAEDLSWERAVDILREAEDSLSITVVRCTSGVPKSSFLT
# Test: holdup assay
# Set-up: key: below the threshold = too weak to quantify, mostly under pKd 3.1 to 4
# Conditions: plain residues with an end cap or a label only (N-terminal biotin on a linker: ado-ado)
row,Binder,pKd
1,B1,below the threshold
2,B2,below the threshold

# Target: NHERF4_1, Q86UT5-2
# Test: holdup assay
# Set-up: key: below the threshold = too weak to quantify, mostly under pKd 3.1 to 4
# Conditions: plain residues with an end cap or a label only (N-terminal biotin on a linker: ado-ado)
# NHERF4_1, Q86UT5-2, sequence (Q86UT5 other isoform, or with tags, fused parts or gaps): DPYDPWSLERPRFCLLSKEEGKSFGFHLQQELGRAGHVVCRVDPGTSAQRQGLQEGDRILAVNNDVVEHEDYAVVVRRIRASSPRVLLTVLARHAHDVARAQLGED
row,Binder,pKd
1,B1,below the threshold
2,B2,3.84

# Target: DLG4_1, P78352
# Test: holdup assay
# Set-up: key: below the threshold = too weak to quantify, mostly under pKd 3.1 to 4
# Conditions: plain residues with an end cap or a label only (N-terminal biotin on a linker: ado-ado)
# DLG4_1, P78352, sequence (P78352 62-152): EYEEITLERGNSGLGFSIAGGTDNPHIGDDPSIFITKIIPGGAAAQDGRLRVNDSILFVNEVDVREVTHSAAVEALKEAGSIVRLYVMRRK
row,Binder,pKd
1,B1,below the threshold
2,B2,below the threshold

# Target: FRMPD2_2, Q68DX3
# Test: holdup assay
# Set-up: key: below the threshold = too weak to quantify, mostly under pKd 3.1 to 4
# Conditions: plain residues with an end cap or a label only (N-terminal biotin on a linker: ado-ado)
# FRMPD2_2, Q68DX3, sequence (Q68DX3 944-1038): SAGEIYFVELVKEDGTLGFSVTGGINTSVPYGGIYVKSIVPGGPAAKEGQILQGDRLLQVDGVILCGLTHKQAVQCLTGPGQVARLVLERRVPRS
row,Binder,pKd
1,B1,below the threshold
2,B2,below the threshold

# Target: Inadl_3, Q8NI35
# Test: holdup assay
# Set-up: key: below the threshold = too weak to quantify, mostly under pKd 3.1 to 4
# Conditions: plain residues with an end cap or a label only (N-terminal biotin on a linker: ado-ado)
# Inadl_3, Q8NI35, sequence (Q8NI35 359-469): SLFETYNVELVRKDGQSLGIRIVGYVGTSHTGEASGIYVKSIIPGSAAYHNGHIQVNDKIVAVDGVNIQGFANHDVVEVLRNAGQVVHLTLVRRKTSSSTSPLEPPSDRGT
row,Binder,pKd
1,B1,below the threshold
2,B2,4.65

# Target: T6, HTRA3, P83110
# T6 sequence (P83110 354-453, limits assumed, looked up): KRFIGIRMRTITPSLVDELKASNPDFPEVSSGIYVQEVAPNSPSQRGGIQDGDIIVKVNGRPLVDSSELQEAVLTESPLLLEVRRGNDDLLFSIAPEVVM
# Test: holdup assay
# Set-up: key: below the threshold = too weak to quantify, mostly under pKd 3.1 to 4
# Conditions: plain residues with an end cap or a label only (N-terminal biotin on a linker: ado-ado)
row,Binder,pKd
1,B1,below the threshold
2,B2,4.16

# Target: TJP1_2, Q07157
# Test: holdup assay
# Set-up: key: below the threshold = too weak to quantify, mostly under pKd 3.1 to 4
# Conditions: plain residues with an end cap or a label only (N-terminal biotin on a linker: ado-ado)
# TJP1_2, Q07157, sequence (Q07157 181-274): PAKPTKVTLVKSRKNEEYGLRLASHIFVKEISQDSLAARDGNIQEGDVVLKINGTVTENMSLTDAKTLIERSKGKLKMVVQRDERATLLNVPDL
row,Binder,pKd
1,B1,3.5
2,B2,4.01

# Target: Inadl_4, Q8NI35
# Test: holdup assay
# Set-up: key: below the threshold = too weak to quantify, mostly under pKd 3.1 to 4
# Conditions: plain residues with an end cap or a label only (N-terminal biotin on a linker: ado-ado)
# Inadl_4, Q8NI35, sequence (Q8NI35 547-651): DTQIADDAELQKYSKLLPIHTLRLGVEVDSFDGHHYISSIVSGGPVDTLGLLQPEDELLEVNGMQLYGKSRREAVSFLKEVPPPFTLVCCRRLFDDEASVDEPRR
row,Binder,pKd
1,B1,below the threshold
2,B2,below the threshold

# Target: T7, LRRC7, Q96NW7
# T7 sequence (Q96NW7 1440-1537, limits assumed, looked up): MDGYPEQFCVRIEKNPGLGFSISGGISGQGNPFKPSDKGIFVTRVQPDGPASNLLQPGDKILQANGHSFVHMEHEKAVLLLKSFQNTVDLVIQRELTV
# Test: holdup assay
# Set-up: key: below the threshold = too weak to quantify, mostly under pKd 3.1 to 4
# Conditions: plain residues with an end cap or a label only (N-terminal biotin on a linker: ado-ado)
row,Binder,pKd
1,B1,below the threshold
2,B2,below the threshold

# Target: T8, DFNB31_2, Q9P202
# T8 sequence (Q9P202 274-371, limits assumed, looked up): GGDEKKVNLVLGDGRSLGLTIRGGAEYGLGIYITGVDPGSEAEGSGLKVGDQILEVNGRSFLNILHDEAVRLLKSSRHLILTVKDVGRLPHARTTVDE
# Test: holdup assay
# Set-up: key: below the threshold = too weak to quantify, mostly under pKd 3.1 to 4
# Conditions: plain residues with an end cap or a label only (N-terminal biotin on a linker: ado-ado)
row,Binder,pKd
1,B1,below the threshold
2,B2,below the threshold

# Target: T9, ARHGAP21, Q5T5U3
# T9 sequence (Q5T5U3 45-169, limits assumed, looked up): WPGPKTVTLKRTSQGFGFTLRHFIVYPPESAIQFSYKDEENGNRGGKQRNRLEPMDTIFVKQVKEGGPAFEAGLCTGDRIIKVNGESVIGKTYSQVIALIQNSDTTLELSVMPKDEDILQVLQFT
# Test: holdup assay
# Set-up: key: below the threshold = too weak to quantify, mostly under pKd 3.1 to 4
# Conditions: plain residues with an end cap or a label only (N-terminal biotin on a linker: ado-ado)
row,Binder,pKd
1,B1,below the threshold
2,B2,below the threshold

# Target: T10, SNTB1, Q13884
# T10 sequence (Q13884 107-205, limits assumed, looked up): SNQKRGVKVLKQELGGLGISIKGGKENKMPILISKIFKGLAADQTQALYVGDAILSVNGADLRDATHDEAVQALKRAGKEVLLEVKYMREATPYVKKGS
# Test: holdup assay
# Set-up: key: below the threshold = too weak to quantify, mostly under pKd 3.1 to 4
# Conditions: plain residues with an end cap or a label only (N-terminal biotin on a linker: ado-ado)
row,Binder,pKd
1,B1,below the threshold
2,B2,below the threshold

# Target: GORASP2, Q9H8Y8
# Test: holdup assay
# Set-up: key: below the threshold = too weak to quantify, mostly under pKd 3.1 to 4
# Conditions: plain residues with an end cap or a label only (N-terminal biotin on a linker: ado-ado)
row,Binder,pKd
1,B1,below the threshold
2,B2,4.83

# Target: GORASP1, Q9BQQ3
# Test: holdup assay
# Set-up: key: below the threshold = too weak to quantify, mostly under pKd 3.1 to 4
# Conditions: plain residues with an end cap or a label only (N-terminal biotin on a linker: ado-ado)
# GORASP1, Q9BQQ3, sequence (Q9BQQ3 1-208): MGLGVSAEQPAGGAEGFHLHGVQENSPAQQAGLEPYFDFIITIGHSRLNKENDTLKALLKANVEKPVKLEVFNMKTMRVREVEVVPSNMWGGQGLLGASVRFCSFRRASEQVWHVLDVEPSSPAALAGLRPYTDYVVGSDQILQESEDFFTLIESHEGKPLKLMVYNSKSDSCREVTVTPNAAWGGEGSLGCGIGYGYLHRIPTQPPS
row,Binder,pKd
1,B1,below the threshold
2,B2,4.37

# Target: T11, MPDZ_5, O75970
# T11 sequence (O75970 695-796, limits assumed, looked up): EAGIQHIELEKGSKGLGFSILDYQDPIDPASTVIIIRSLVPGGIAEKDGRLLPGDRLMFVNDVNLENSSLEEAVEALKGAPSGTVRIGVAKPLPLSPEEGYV
# Test: holdup assay
# Set-up: key: below the threshold = too weak to quantify, mostly under pKd 3.1 to 4
# Conditions: plain residues with an end cap or a label only (N-terminal biotin on a linker: ado-ado)
row,Binder,pKd
1,B1,below the threshold
2,B2,below the threshold

# Target: DLG2_3, Q15700
# Test: holdup assay
# Set-up: key: below the threshold = too weak to quantify, mostly under pKd 3.1 to 4
# Conditions: plain residues with an end cap or a label only (N-terminal biotin on a linker: ado-ado)
row,Binder,pKd
1,B1,below the threshold
2,B2,3.63
